The record followed here is patent publication US20170204176A1 (MacroGenics, published 2017).

For assay [1], the target named is T1, DR5 on DU145 human prostate cells (human, UniProt O14763 56-440).
T1 construct: whole, on cells; DU145 cells carry both EphA2 and DR5; also called DU145 cells (express EphA2 and DR5, not gpA33)
The assay is described as follows: FACS on DU145 cells (gpA33- EphA2+ DR5+), Log MFI.

For assay [2], the target named is T2, EphA2 on DU145 human prostate cells (human, UniProt P29317 24-976).
T2 construct: whole, on cells; DU145 cells carry both EphA2 and DR5; also called DU145 cells (express EphA2 and DR5, not gpA33)
The assay is described as follows: FACS on DU145 cells (gpA33- EphA2+ DR5+), Log MFI.

In assay [3] the target is T3, EphA2 on EphA2-expressing CHO cells (UniProt P29317 24-976, limits assumed).
T3 construct: whole, on cells; EphA2 mAb 1 is called an anti-human EphA2 antibody; also called EphA2-expressing CHO target cells
The assay can be described thus: FACS on EphA2-expressing CHO cells (Log MFI).

In assay [4] the target is T4, DR5 on DR5-expressing CHO cells (UniProt O14763 56-440, limits assumed).
T4 construct: whole, on cells; also called DR5-expressing CHO target cells
The assay is described as follows: FACS on DR5-expressing CHO cells (Log MFI).
Excerpt: The ability of Tri-Specific Binding Molecules of the present invention to bind to target cells was investigated.

The target of assay [5] is T2, EphA2 on DU145 human prostate cells. The assay is described as follows: FACS on DU145 cells (gpA33- EphA2+ DR5+), Log MFI; only the EphA2 domain has its antigen on these cells.
The target of assay [6] is T5, His-tagged cynomolgus monkey DR5 (cynomolgus monkey (Macaca fascicularis)).
T5 construct: also called His-tagged DR5
The assay is described as follows: Biacore (SPR); DR5 mAb 1×CD3 mAb 2 diabody with His-tagged cynomolgus monkey DR5. A general note: In SPR one partner is held on a chip, and binding of the other changes the refractive index at the surface.
Description: (§1) Bi-specific DR5×CD3 diabodies were incubated with His-tagged DR5 and the kinetics of binding was determined via Biacore analysis.

The target in a further assay is T6, His-tagged human DR5 (human, UniProt O14763 56-210, limits assumed).
T6 construct: whole precursor entry named; also called His-tagged DR5; not shown: His tag
The assay is described as follows: Biacore (SPR); DR5 mAb 1×CD3 mAb 2 diabody with His-tagged human DR5.

Description for His-tagged human DR5: as §1

B1: gpA33 mAb 1 x CD3 mAb 2 (bispecific antibody)
first polypeptide chain (VL gpA33 mAb 1 - Linker 1 - VH CD3 mAb 2 D65G - ASTKG - cysteine-containing E-coil): DIQLTQSPSFLSASVGDRVTITCSARSSISFMYWYQQKPGKAPKLLIYDTSNLASGVPSRFSGSGSGTEFTLTISSLEAEDAATYYCQQWSSYPLTFGQGTKLEIKGGGSGGGGEVQLVESGGGLVQPGGSLRLSCAASGFTFSTYAMNWVRQAPGKGLEWVGRIRSKYNNYATYYADSVKGRFTISRDDSKNSLYLQMNSLKTEDTAVYYCVRHGNFGNSYVSWFAYWGQGTLVTVSSASTKGEVAACEKEVAALEKEVAALEKEVAALEK
second polypeptide chain (VL CD3 mAb 2 - Linker 1 - VH gpA33 mAb 1 - ASTKG - cysteine-containing K-coil): QAVVTQEPSLTVSPGGTVTLTCRSSTGAVTTSNYANWVQQKPGQAPRGLIGGTNKRAPWTPARFSGSLLGGKAALTITGAQAEDEADYYCALWYSNLWVFGGGTKLTVLGGGGSGGGGQVQLVQSGAEVKKPGASVKVSCKASGYTFTGSWMNWVRQAPGQGLEWIGRIYPGDGETNYNGKFKDRVTITADKSTSTAYMELSSLRSEDTAVYYCARIYGNNVYFDVWGQGTTVTVSSASTKGKVAACKEKVAALKEKVAALKEKVAALKE
B1: the binding result in assay [1], in assay [2], in assay [3] and in assay [4] was “no binding” each time.

B2: EphA2 mAb 1×CD3 mAb 2×DR5 mAb 1 (other)
chain 1: DIQMTQTTSSLSASLGDRITISCRASQDISNYLNWYQQKPDGTVKLLIYYTSRLHSGVPSRFSGSGSGTDYSLTISNLEQEDIATYFCQQGYTLYTFGGGTKLEIKGGGSGGGGEVQLVESGGGLVQPGGSLRLSCAASGFTFSTYAMNWVRQAPGKGLEWVGRIRSKYNNYATYYADSVKGRFTISRDDSKNSLYLQMNSLKTEDTAVYYCVRHGNFGNSYVSWFAYWGQGTLVTVSSGGCGGGEVAALEKEVAALEKEVAALEKEVAALEKGGGDKTHTCPPCPAPEAAGGPSVFLFPPKPKDTLMISRTPEVTCVVVDVSHEDPEVKFNWYVDGVEVHNAKTKPREEQYNSTYRVVSVLTVLHQDWLNGKEYKCKVSNKALPAPIEKTISKAKGQPREPQVYTLPPSREEMTKNQVSLWCLVKGFYPSDIAVEWESNGQPENNYKTTPPVLDSDGSFFLYSKLTVDKSRWQQGNVFSCSVMHEALHNHYTQKSLSLSPGK
chain 2: QAVVTQEPSLTVSPGGTVTLTCRSSTGAVTTSNYANWVQQKPGQAPRGLIGGTNKRAPWTPARFSGSLLGGKAALTITGAQAEDEADYYCALWYSNLWVFGGGTKLTVLGGGGSGGGGQVQLKESGPGLVAPSQSLSITCTVSGFSLSRYSVHWVRQPPGKGLEWLGMIWGGGSTDYNSALKSRLSISKDNSKSQVFLKMNSLQTDDTAMYYCARKHGNYYTMDYWGQGTSVTVSSGGCGGGKVAALKEKVAALKEKVAALKEKVAALKE
heavy: EVKFLESGGGLVQPGGSLKLSCVASGFDFSRYWMSWVRQAPGKGLEWIGEINPDSNTINYTPSLKDKFIISRDNAKNTLYLQMTKVRSEDTALYYCTRRAYYGNPAWFAYWGQGTLVTVSSASTKGPSVFPLAPSSKSTSGGTAALGCLVKDYFPEPVTVSWNSGALTSGVHTFPAVLQSSGLYSLSSVVTVPSSSLGTQTYICNVNHKPSNTKVDKRVEPKSCDKTHTCPPCPAPEAAGGPSVFLFPPKPKDTLMISRTPEVTCVVVDVSHEDPEVKFNWYVDGVEVHNAKTKPREEQYNSTYRVVSVLTVLHQDWLNGKEYKCKVSNKALPAPIEKTISKAKGQPREPQVYTLPPSREEMTKNQVSLSCAVKGFYPSDIAVEWESNGQPENNYKTTPPVLDSDGSFFLVSKLTVDKSRWQQGNVFSCSVMHEALHNRYTQKSLSLSPGK
light: DIVLTQSPASLAVSLGQRATISCRASKSVSSSGYSYMHWYQQKPGQPPKVLIFLSSNLDSGVPARFSGSGSGTDFTLNIHPVEDGDAATYYCQHSRDLPPTFGGGTKLEIKRTVAAPSVFIFPPSDEQLKSGTASVVCLLNNFYPREAKVQWKVDNALQSGNSQESVTEQDSKDSTYSLSSTLTLSKADYEKHKVYACEVTHQGLSSPVTKSFNRGEC
notes: a Fab-type heavy chain with hole Fc; a kappa light chain
As to B2, the concentration giving a half-maximal response (EC50 (read off the curve)) in assay [3] was about 700 pM; in assay [4], about 900 pM.

B3: gpA33 mAb 1×CD3 mAb 2×DR5 mAb 1 (other)
chain 1: DIQLTQSPSFLSASVGDRVTITCSARSSISFMYWYQQKPGKAPKLLIYDTSNLASGVPSRFSGSGSGTEFTLTISSLEAEDAATYYCQQWSSYPLTFGQGTKLEIKGGGSGGGGEVQLVESGGGLVQPGGSLRLSCAASGFTFSTYAMNWVRQAPGKGLEWVGRIRSKYNNYATYYADSVKGRFTISRDDSKNSLYLQMNSLKTEDTAVYYCVRHGNFGNSYVSWFAYWGQGTLVTVSSGGCGGGEVAALEKEVAALEKEVAALEKEVAALEKGGGDKTHTCPPCPAPEAAGGPSVFLFPPKPKDTLMISRTPEVTCVVVDVSHEDPEVKFNWYVDGVEVHNAKTKPREEQYNSTYRVVSVLTVLHQDWLNGKEYKCKVSNKALPAPIEKTISKAKGQPREPQVYTLPPSREEMTKNQVSLWCLVKGFYPSDIAVEWESNGQPENNYKTTPPVLDSDGSFFLYSKLTVDKSRWQQGNVFSCSVMHEALHNHYTQKSLSLSPGK
chain 2: QAVVTQEPSLTVSPGGTVTLTCRSSTGAVTTSNYANWVQQKPGQAPRGLIGGTNKRAPWTPARFSGSLLGGKAALTITGAQAEDEADYYCALWYSNLWVFGGGTKLTVLGGGGSGGGGQVQLVQSGAEVKKPGASVKVSCKASGYTFTGSWMNWVRQAPGQGLEWIGRIYPGDGETNYNGKFKDRVTITADKSTSTAYMELSSLRSEDTAVYYCARIYGNNVYFDVWGQGTTVTVSSGGCGGGKVAALKEKVAALKEKVAALKEKVAALKE
heavy: B2 heavy
light: B2 light
For the molecule B3, the binding result in assay [3] is listed as “no binding”. Also, the 50% effective concentration (EC50 (read off the curve)) in assay [4] is about 900 pM.

B4: EphA2 mAb 1×CD3 mAb 2×gpA33 mAb 1 (other)
chain 1: B2 chain 1
chain 2: B2 chain 2
heavy: QVQLVQSGAEVKKPGASVKVSCKASGYTFTGSWMNWVRQAPGQGLEWIGRIYPGDGETNYNGKFKDRVTITADKSTSTAYMELSSLRSEDTAVYYCARIYGNNVYFDVWGQGTTVTVSSASTKGPSVFPLAPSSKSTSGGTAALGCLVKDYFPEPVTVSWNSGALTSGVHTFPAVLQSSGLYSLSSVVTVPSSSLGTQTYICNVNHKPSNTKVDKRVEPKSCDKTHTCPPCPAPEAAGGPSVFLFPPKPKDTLMISRTPEVTCVVVDVSHEDPEVKFNWYVDGVEVHNAKTKPREEQYNSTYRVVSVLTVLHQDWLNGKEYKCKVSNKALPAPIEKTISKAKGQPREPQVYTLPPSREEMTKNQVSLSCAVKGFYPSDIAVEWESNGQPENNYKTTPPVLDSDGSFFLVSKLTVDKSRWQQGNVFSCSVMHEALHNRYTQKSLSLSPGK
light: DIQLTQSPSFLSASVGDRVTITCSARSSISFMYWYQQKPGKAPKLLIYDTSNLASGVPSRFSGSGSGTEFTLTISSLEAEDAATYYCQQWSSYPLTFGQGTKLEIKRTVAAPSVFIFPPSDEQLKSGTASVVCLLNNFYPREAKVQWKVDNALQSGNSQESVTEQDSKDSTYSLSSTLTLSKADYEKHKVYACEVTHQGLSSPVTKSFNRGEC
With B4, the “EC50 (read off the curve)” value was about 900 pM in assay [3] and about 1000 pM in assay [5]. In addition, the binding result in assay [4] is “no binding”.

B5: DR5 mAb 1×CD3 mAb 2 diabody (bispecific antibody)
chain 1: DIVLTQSPASLAVSLGQRATISCRASKSVSSSGYSYMHWYQQKPGQPPKVLIFLSSNLDSGVPARFSGSGSGTDFTLNIHPVEDGDAATYYCQHSRDLPPTFGGGTKLEIKGGGSGGGGEVQLVESGGGLVQPGGSLRLSCAASGFTFSTYAMNWVRQAPGKGLEWVGRIRSKYNNYATYYADSVKGRFTISRDDSKNSLYLQMNSLKTEDTAVYYCVRHGNFGNSYVSWFAYWGQGTLVTVSSASTKGEVAACEKEVAALEKEVAALEKEVAALEK
chain 2: QAVVTQEPSLTVSPGGTVTLTCRSSTGAVTTSNYANWVQQKPGQAPRGLIGGTNKRAPWTPARFSGSLLGGKAALTITGAQAEDEADYYCALWYSNLWVFGGGTKLTVLGGGGSGGGGEVKFLESGGGLVQPGGSLKLSCVASGFDFSRYWMSWVRQAPGKGLEWIGEINPDSNTINYTPSLKDKFIISRDNAKNTLYLQMTKVRSEDTALYYCTRRAYYGNPAWFAYWGQGTLVTVSAASTKGKVAACKEKVAALKEKVAALKEKVAALKE
notes: Two-chain bi-specific DR5×CD3 diabody
Consider B5, for which the Kd in assay [6] worked out at 32500 pM; with His-tagged human DR5 it was 140 pM.

For orientation: EC50 (read off the curve) means the midpoint of the concentration-response curve. A word on the Kd: it is a measure of binding affinity in units of concentration.
